From patent CN116925225A (CAS BLOOD HEMATONOSIS HOSPITAL INST OF BLOOD HEMATONOSIS CAS, dated 2023)

Biological target: T1, 人CD7 (human CD7 on the surface of Jurkat, Molt4, CCRF-CEM and Hut78 cells) (human, UniProt P09564 26-240)
T1 construct: whole, on cells; also called CD7抗原
T1 sequence (looked up): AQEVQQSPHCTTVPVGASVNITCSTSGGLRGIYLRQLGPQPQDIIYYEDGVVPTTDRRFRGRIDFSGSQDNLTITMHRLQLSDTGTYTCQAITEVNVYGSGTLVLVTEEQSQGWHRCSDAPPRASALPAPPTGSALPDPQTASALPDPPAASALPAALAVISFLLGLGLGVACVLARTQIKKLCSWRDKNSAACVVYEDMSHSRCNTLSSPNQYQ
Assay: FACS, 0.15μg/100μl antibody on 2×10^5 Jurkat, Molt4, CEM and Hut78 cells (high in human CD7)

binding result: binds
B1: 单克隆抗体HIT7 (CD7-HIT7, mouse anti-human CD7 monoclonal antibody) (antibody, V domains shown)
VH: QVQLQESGPGLVKPSQTVSLTCTVTGISITTGNYRWSWIRQFPGNKLEWIGYIYYSGIITYNPSRTSRTTITRDISKNQFFLEMNSLTAEDTATYYCARERGIYYDSLWYFDVWGAGTTVTVSS
VL: DIVLTQSPASLAVSLGQRATISCRASKSVSASGYSYMHWYQQKPGQPPKLLIYLASNLESGVPARFSGSGSGTDFTLNIHPVEEEDAVTYYCQHSRELPYTFGGGTKLEIKR
notes: also called 本发明单克隆抗体; 鼠抗人CD7单克隆抗体
